Reference: patent publication US20060223116

What was measured:
[1] = tested on: T1, truncated GST-fusion T-bet protein, C-terminal fragment
T1 sequence (Q9UL17 whole entry, species assumed, looked up): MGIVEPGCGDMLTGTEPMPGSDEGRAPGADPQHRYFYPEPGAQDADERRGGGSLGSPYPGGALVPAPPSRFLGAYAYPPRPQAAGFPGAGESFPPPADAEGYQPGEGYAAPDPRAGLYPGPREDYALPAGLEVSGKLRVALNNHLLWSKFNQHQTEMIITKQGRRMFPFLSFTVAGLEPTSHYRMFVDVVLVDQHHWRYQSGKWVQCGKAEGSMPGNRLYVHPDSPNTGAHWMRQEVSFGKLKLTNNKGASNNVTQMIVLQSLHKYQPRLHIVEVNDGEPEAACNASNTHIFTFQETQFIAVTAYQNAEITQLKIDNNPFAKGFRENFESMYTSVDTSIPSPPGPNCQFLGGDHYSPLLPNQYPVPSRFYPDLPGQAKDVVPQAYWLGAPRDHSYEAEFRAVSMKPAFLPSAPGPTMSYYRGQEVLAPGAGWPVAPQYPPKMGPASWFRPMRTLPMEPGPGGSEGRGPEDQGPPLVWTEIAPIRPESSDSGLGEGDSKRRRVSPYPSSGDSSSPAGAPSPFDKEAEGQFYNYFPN

[2] = tested on: T2, truncated GST-fusion T-bet protein, N-terminal fragment
T2 sequence (Q9UL17 whole entry, species assumed, looked up): T1 sequence (Q9UL17 whole entry, species assumed, looked up)

B1: ITK-FLAG (full length IL-2 inducible T cell tyrosine kinase, FLAG-tagged) (enzyme, UniProt Q08881 1-620, looked up, species assumed)
chain: MNNFILLEEQLIKKSQQKRRTSPSNFKVRFFVLTKASLAYFEDRHGKKRTLKGSIELSRIKCVEIVKSDISIPCHYKYPFQVVHDNYLLYVFAPDRESRQRWVLALKEETRNNNSLVPKYHPNFWMDGKWRCCSQLEKLATGCAQYDPTKNASKKPLPPTPEDNRRPLWEPEETVVIALYDYQTNDPQELALRRNEEYCLLDSSEIHWWRVQDRNGHEGYVPSSYLVEKSPNNLETYEWYNKSISRDKAEKLLLDTGKEGAFMVRDSRTAGTYTVSVFTKAVVSENNPCIKHYHIKETNDNPKRYYVAEKYVFDSIPLLINYHQHNGGGLVTRLRYPVCFGRQKAPVTAGLRYGKWVIDPSELTFVQEIGSGQFGLVHLGYWLNKDKVAIKTIREGAMSEEDFIEEAEVMMKLSHPKLVQLYGVCLEQAPICLVFEFMEHGCLSDYLRTQRGLFAAETLLGMCLDVCEGMAYLEEACVIHRDLAARNCLVGENQVIKVSDFGMTRFVLDDQYTSSTGTKFPVKWASPEVFSFSRYSSKSDVWSFGVLMWEVFSEGKIPYENRSNSEVVEDISTGFRLYKPRLASTHVYQIMNHCWKERPEDRPAFSRLLRQLAEIAESGL
modifications: full-length FLAG tag
- in vitro kinase assay (32P-ATP, autoradiography) [1]: both the N and C terminal fragments but not the DNA binding domain, could be phosphorylated by the Tec kinases, ITK and RLK
- in vitro kinase assay (32P-ATP, autoradiography) [2]: both the N and C terminal fragments but not the DNA binding domain, could be phosphorylated by the Tec kinases, ITK and RLK
